Test in all cases: fluorescence polarisation; fluorescence anisotropy; 2 µL additions of 40-90 µM human EFL1 titrated into 300 µL of 0.1 µM Lumio Green-labelled human SBDS-FlAsH construct; 25 °C; 50 mM Tris-HCl pH 8, 300 mM NaCl, 5 mM β-mercaptoethanol; fitted to a single-site or a two different binding sites model
Common to all, as to details: both partners purified

In experiment [1] the target is T1, human SBDS R19Q with C-terminal FlAsH tag, labelled with Lumio Green (human, UniProt Q9Y3A5 1-250, R19Q, Lumio Green dye (4',5'-bis(1,3,2-dithioarsolan-2-yl) fluorescein) on the C-terminal FlAsH tag).
T1 construct: human SBDS, SDS disease surface missense variant R19Q (domain 1), in the three-domain protein; Missense variant found in patients; source: E. coli C41 (pRSET plasmid), purified by conventional chromatographic techniques; not shown: FlAsH tag (Cys-Cys-Pro-Gly-Cys-Cys), C-terminal, kept
T1 sequence (looked up): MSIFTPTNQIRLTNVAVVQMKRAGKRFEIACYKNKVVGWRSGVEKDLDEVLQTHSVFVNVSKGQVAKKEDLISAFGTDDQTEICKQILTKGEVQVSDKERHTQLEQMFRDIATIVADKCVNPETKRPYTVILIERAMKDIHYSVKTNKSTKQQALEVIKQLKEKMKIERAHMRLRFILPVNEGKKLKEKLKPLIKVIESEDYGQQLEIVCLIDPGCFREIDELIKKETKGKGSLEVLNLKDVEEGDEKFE

Experiment [2] has as its target T2, human SBDS K67E with C-terminal FlAsH tag, labelled with Lumio Green (human, UniProt Q9Y3A5 1-250, K67E, Lumio Green dye (4',5'-bis(1,3,2-dithioarsolan-2-yl) fluorescein) on the C-terminal FlAsH tag).
T2 construct: human SBDS, SDS disease surface missense variant K67E (domain 1), in the three-domain protein; Missense variant found in patients; source: E. coli C41 (pRSET plasmid), purified by conventional chromatographic techniques; not shown: FlAsH tag (Cys-Cys-Pro-Gly-Cys-Cys), C-terminal, kept
T2 sequence (looked up): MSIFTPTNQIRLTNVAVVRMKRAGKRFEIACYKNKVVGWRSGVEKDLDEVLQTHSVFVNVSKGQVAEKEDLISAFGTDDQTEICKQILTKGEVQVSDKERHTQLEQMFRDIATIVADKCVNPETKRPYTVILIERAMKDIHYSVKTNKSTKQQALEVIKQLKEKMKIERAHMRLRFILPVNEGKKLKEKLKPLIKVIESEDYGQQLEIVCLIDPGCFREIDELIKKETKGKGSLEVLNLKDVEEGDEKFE

The target in experiment [3] is T3, human SBDS wild type with C-terminal FlAsH tag, labelled with Lumio Green (human, UniProt Q9Y3A5 1-250, Lumio Green dye (4',5'-bis(1,3,2-dithioarsolan-2-yl) fluorescein) on the C-terminal FlAsH tag).
T3 construct: human SBDS, wild type, called the full-length protein; also called SBDS-FlAsH; Shwachman-Bodian-Diamond Syndrome protein; source: E. coli C41 (pRSET plasmid), purified by conventional chromatographic techniques; not shown: FlAsH tag (Cys-Cys-Pro-Gly-Cys-Cys), C-terminal, kept
T3 sequence (looked up): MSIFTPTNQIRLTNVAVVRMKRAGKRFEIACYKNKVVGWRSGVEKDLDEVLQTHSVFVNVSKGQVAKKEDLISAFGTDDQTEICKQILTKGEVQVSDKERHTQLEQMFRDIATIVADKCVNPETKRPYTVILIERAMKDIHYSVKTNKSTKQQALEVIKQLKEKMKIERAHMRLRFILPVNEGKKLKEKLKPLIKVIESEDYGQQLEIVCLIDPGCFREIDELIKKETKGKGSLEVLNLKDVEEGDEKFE

B1: human Elongation Factor Like-1 (EFL1) (enzyme)
chain: MVLNSLDKMIQLQKNTANIRNICVLAHVDHGKTTLADCLISSNGIISSRLAGKLRYMDSREDEQIRGITMKSSAISLHYATGNEEYLINLIDSPGHVDFSSEVSTAVRICDGCIIVVDAVEGVCPQTQAVLRQAWLENIRPVLVINKIDRLIVELKFTPQEAYSHLKNILEQINALTGTLFTSKVLEERAERETESQVNPNSEQGEQVYDWSTGLEDTDDSHLYFSPEQGNVVFTSAIDGWGFGIEHFARIYSQKIGIKKEVLMKTLWGDYYINMKAKKIMKGDQAKGKKPLFVQLILENIWSLYDAVLKKDKDKIDKIVTSLGLKIGAREARHSDPKVQINAICSQWLPISHAVLAMVCQKLPSPLDITAERVERLMCTGSQTFDSFPPETQALKAAFMKCGSEDTAPVIIFVSKMFAVDAKALPQNKPRPLTQEEIAQRRERARQRHAEKLAAAQGQAPLEPTQDGSAIETCPKGEEPRGDEQQVESMTPKPVLQEENNQESFIAFARVFSGVARRGKKIFVLGPKYSPLEFLRRVPLGFSAPPDGLPQVPHMAYCALENLYLLMGRELEYLEEVPPGNVLGIGGLQDFVLKSATLCSLPSCPPFIPLNFEATPIVRVAVEPKHPSEMPQLVKGMKLLNQADPCVQILIQETGEHVLVTAGEVHLQRCLDDLKERFAKIHISVSEPIIPFRETITKPPKVDMVNEEIGKQQKVAVIHQMKEDQSKIPEGIQVDSDGLITITTPNKLATLSVRAMPLPEEVTQILEENSDLIRSMEQLTSSLNEGENTHMIHQKTQEKIWEFKGKLEQHLTGRRWRNIVDQIWSFGPRKCGPNILVNKSEDFQNSVWTGPADKASKEASRYRDLGNSIVSGFQLATLSGPMCEEPLMGVCFVLEKWDLSKFEEQGASDLAKEGQEENETCSGGNENQELQDGCSEAFEKRTSQKGESPLTDCYGPFSGQLIATMKEACRYALQVKPQRLMAAMYTCDIMATGDVLGRVYAVLSKREGRVLQEEMKEGTDMFIIKAVLPVAESFGFADEIRKRTSGLASPQLVFSHWEIIPSDPFWVPTTEEEYLHFGEKADSENQARKYMNAVRKRKGLYVEEKIVEHAEKQRTLSKNK
notes: human EFL1, GTPase, said to comprise 1120 residues; the expressed protein is fused to a TEV recognition site and a hexahistidine tag at the C-terminus; also called human EFL1; GTPase Elongation Factor Like-1; source: S. cerevisiae BCY123 (pRS426 backbone, GAL1/10 promoter), purified
For the molecule B1, the results for the “Kd1 (first binding site, two different binding sites model)” value in experiment [1], in experiment [2] and in experiment [3] were 4.2 ± 0.5 µM, 7.2 ± 2 µM and 5.4 ± 1 µM, respectively. Further, the “Kd2 (second binding site, two different binding sites model)” value in experiment [1] amounted to 5.2 ± 0.3 µM; in experiment [2], 3 ± 1 µM; in experiment [3], 0.4 ± 0.04 µM.

The values are drawn from paper PMC6321010, “Interaction of the GTPase Elongation Factor Like-1 with the Shwachman-Diamond Syndrome Protein and Its Missense Mutations” (International Journal of Molecular Sciences, 2018).
